# US5919790A, “Hydroxamate inhibitors of interleukin-1β converting enzyme” (Warner-Lambert Company, priority 1997, dated 1999)
# B1: ICE (interleukin-1β converting enzyme) (Homo sapiens) (protein)
# chain 1: NPAMPTSSGSEGNVKLCSLEEAQRIWKQKSAEIYPIMDKSSRTRLALIICNEEFDSIPRRTGAEVDITGMTMLLQNLGYSVDVKKNLTASDMTTELEAFAHRPEHKTSDSTFLVFMSHGIREGICGKKHSEQVPDILQLNAIFNMLNTKNCPSLKDKPKVIIIQACRGDSPGVVWFKD
# chain 2: AIKKAHIEKDFIAFCSSTPDNVSWRHPTMGSVFIGRLIEHMQEYACSCDVEEIFRKVRFSFEQPDGRAQMPTTERVTLTRCFYLFPGH
# Substrate: CC(=O)N[C@@H](Cc1ccc(O)cc1)C(=O)N[C@H](C(=O)N[C@@H](C)C(=O)N[C@@H](CC(=O)O)C(=O)Nc1ccc2c(C)cc(=O)oc2c1)C(C)C
# Assay: ICE inhibition, Ki, fluorescence assay with Ac-Tyr-Val-Ala-Asp-AMC
# Type: biochemical
# Details: other: substrate of ICE, HGDE buffer
# Experimental: Substrate hydrolysis is monitored for 300 seconds by observing the fluorescence of released AMC using excitation at 380 nm and emission at 460 nm. Mean rates of substrate hydrolysis are evaluated by linear-regression analysis of the fluorescence vs time traces. […] ICE Colorimetric Dose-Response (IC50) Assay
protein,measurement,value
B1,Km,15 µM
